Data published in the supplement of paper PMC12042874.
± gives the uncertainty stated by the source.

Experiment: amyloid nucleation score (Sup35N fusion, yeast selection) (log enrichment); library NNK2; higher = more nucleation; inactive = no reads after selection
Method in brief: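 Sup35N fusions to peptides of 20 random codons were expressed in psi-negative yeast, induced 24 hours with 100 μM copper sulfate, and grown 7 days at 30°C on medium lacking adenine and uracil. Input and output plasmid inserts were sequenced by Illumina. The nucleation score is the DiMSum log enrichment of output over input reads, centred on the mode score of non-aggregating sequences. Sequences with under 100 input reads were excluded.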

Row | Substance | amyloid nucleation score
1 | YFCERWMLSCIGGLFVNFLY | 0.168 ± 0.15
2 | YKWWDLCLNFPCGRLKAQPR | 1.28 ± 0.25
3 | LLHLQYHLFMLCTVVNPHLL | -0.628 ± 0.54
4 | GKVRRIIWLSCKNG | 1.05 ± 0.54
5 | DGTAFMARPKETSIPDVSSS | -0.593 ± 0.33
6 | FWLLSTCGV | -0.408 ± 0.29
7 | FTQTSTVPSKETALALNLMR | 0.688 ± 0.57
8 | HNGSNFGTWSQGSLRHVRAR | -0.023 ± 0.31
9 | WEASCVNPH | -0.191 ± 0.65
10 | GSARCNTSFCCQQVYFYGCG | 8.486 ± 0.064
11 | HGGFGYR | -0.336 ± 0.49
12 | GCLTNTSSGMHWS | -0.208 ± 0.24
13 | NISDTSMISNGYCIN | 0.154 ± 0.63
14 | SVADGAHFCYYNLYFGGFVY | 4.24 ± 0.081
15 | RRGKFEAANSWGD | 0.792 ± 0.53
16 | QFLAIFCSIT | 7.684 ± 0.043
17 | RWAFHCKSRDVFNMRKL | inactive
18 | ISDSRLRKCVAPHSRDSGGH | 1.96 ± 0.19
19 | VLRGSFKGFFYRWIKCGFEW | -1.24 ± 0.64
20 | FGMTRRETWNLSGCESITCT | 0.593 ± 0.45
21 | IWRNSANCGASDEAVDSLR | 0.53 ± 0.56
22 | AVFTIFALVRS | 1.08 ± 0.51
23 | NGEASVGDFNVCLR | -0.478 ± 0.64
24 | DRMQVRSR | 0.944 ± 0.27
25 | YLSYSTLLPKSETEWMYCVL | -0.631 ± 1

Row | Substance | amyloid nucleation score
26 | RVIWRQWYNTL | 1.61 ± 0.19
27 | EISAMVAL | -1.06 ± 0.54
28 | RTRSSYGVVLKIRKWCPEVA | 1.18 ± 0.61
29 | YRCYTSGFLFFHGSCLNCKS | 0.227 ± 1.1
30 | HLDYAGYIGDRSHTDFASGR | 0.519 ± 0.46
31 | KERAYRGNQAKKRLKTALFY | inactive
32 | LVWTVPTGVLFRHGC | 1.57 ± 0.24
33 | PSRPCGLRELAYADSAKQLW | 1.15 ± 0.34
34 | LLSIYVSSWKLRGSAPG | -0.337 ± 0.63
35 | SLSSGHETVR | 3.69 ± 0.15
36 | MYVRVDFVFSNADRTWNPLK | 3.76 ± 0.08
37 | EYSMHTWCRYKEDFSRGASG | 2.98 ± 0.096
38 | VWVRMRKAVGAVHYRDLRSS | 8.893 ± 0.075
39 | YNGLEVAYLF | 5.43 ± 0.062
40 | LSRDVHCSRFSHREGLITRT | 0.767 ± 0.74
41 | GNYVSTFFKCRILYRMNLMF | -0.121 ± 1.1
42 | FIWSYVLSRGSV | -1.03 ± 0.31
43 | MMNTMLHGIVVMNFSWVASW | 4.26 ± 0.053
44 | RRLFRLVVYFLPNR | inactive
45 | LTGLVSLPRCWTIWVPWREG | 1.43 ± 0.25
46 | ILIKYVLAPWSSSLTVWGKA | -0.365 ± 0.3
47 | CTSASGTSPGWNKRGRNWGD | 5.52 ± 0.095
48 | GAPSHFCEFCSYSAAKEEYE | inactive
49 | LFTKRRW | 0.87 ± 0.46
50 | NMMISCVNTLADDVFRGGFV | -1.33 ± 0.31

Row | Substance | amyloid nucleation score
51 | VGVYICFILGH | 3.56 ± 0.14
52 | KDWRGMEDFMSVFFRSGLGS | inactive
53 | YRKSWVWVLLESASAMLIGL | 0.682 ± 0.22
54 | YFTSGNDDSVFDVYRSIWMV | 2.91 ± 0.13
55 | SYLHNSN | -1.26 ± 0.78
56 | FIERILAVSCFAYFVKPSTV | 5.44 ± 0.042
57 | HEGNKRARYLALLSEIYFQW | 4.65 ± 0.084
58 | GYLQGLCRG | -0.047 ± 1.1
59 | SAGYKLDSCTVYWGLACDSR | -0.366 ± 0.79
60 | SVFVCTDIFK | 0.702 ± 0.52
61 | IFDIWTSIAVRDLLLNGRSW | 0.561 ± 0.31
62 | LFGTNFYVQDNIVKGRVLIM | inactive
63 | NRDTM | -1.13 ± 0.37
64 | TLNLDFFELSMPGDFSDLVS | inactive
65 | QILNGSAY | -0.899 ± 0.3
66 | VNAEGTVMQSWHCHCDMSVL | 6.245 ± 0.043
67 | LTGSFYQHNGMLSTPRHRCL | -0.547 ± 0.63
68 | MCYHDSVNNERINMGVLLHV | 0.067 ± 0.56
69 | AWCFLYLLWLPGIQN | -0.226 ± 1.1
70 | DWCVNVIERSGDTLEVMCNF | 0.817 ± 0.8
71 | LLTRLKGGPPARAPHSTSGL | 1.91 ± 0.13
72 | GIPCGGMFCRIGS | 0.524 ± 0.81
73 | LFWGWITFTKECTNWGATIG | 0.895 ± 0.58
74 | RTVYRFNVRI | 0.291 ± 0.27
75 | RLYKRLR | -1.19 ± 1.1

Row | Substance | amyloid nucleation score
76 | GMGIHFKASGRGPLIVGERD | 0.75 ± 0.44
77 | SKLMQVRRGVLSGYLSESDE | -0.149 ± 0.55
78 | YRDRDLC | -0.339 ± 0.34
79 | QYSYGWHLRTIRIRRTCTGS | 1.15 ± 0.31
80 | STFFKLD | -1.88 ± 1.1
81 | CSLLGNFYILGYWATFMASD | -1.57 ± 0.53
82 | LCYFCISGDRHSLEVKTLVT | -0.527 ± 0.4
83 | WYEYCFCGVMLYRTGDCTRR | 3.96 ± 0.086
84 | VGLFGWRGKEGF | -0.033 ± 0.76
85 | SGWQFQSWRVQRMWLVELSC | 0.494 ± 0.49
86 | FRQFS | 0.285 ± 1
87 | VMCFEYYVYYDYDYTCTFNY | 0.842 ± 0.12
88 | YLMVISEQIGDMCTISS | -1.36 ± 0.76
89 | ASTSLMVN | 0.052 ± 0.46
90 | LARASKHCSEVLGDCLA | 0.366 ± 0.8
91 | VNMLTGLSKDK | -0.142 ± 0.23
92 | LDRSRTKSWLGDFWG | -0.074 ± 0.46
93 | PYQMGSYKLACVQKRPWV | 0.929 ± 0.58
94 | IPLVKCRSCRRCNN | 0.412 ± 0.5
95 | GDMLILSENDQRYCGPVDL | 0.107 ± 0.45
96 | GICTWNFV | inactive
97 | GCTSTRRLVYC | -0.622 ± 0.29
98 | GRESKVWIPFTGALF | -1.04 ± 1.1
99 | ANLRLYICWGFDKSVINIKS | 6.908 ± 0.038
100 | VGCCVQGNLYSSFLAMFVA | 7.352 ± 0.028

Row | Substance | amyloid nucleation score
101 | KERLAFCMYGLGVDYVTFGN | 0.497 ± 0.57
102 | EDRVCAYLNRKYCRYLGHSM | 1.29 ± 0.35
103 | VMCFNAVSLTFVFRDMTSYY | 8.804 ± 0.05
104 | MGVSNIDIVSRILNPGAAAS | 1.36 ± 0.41
105 | SWFRMSVWSSLRAHMNASNT | -0.198 ± 0.28
106 | EHVVSSRRLYLQGDILLNSQ | inactive
107 | GTSMCRELNVHNAWRGIHMG | 0.615 ± 0.29
108 | FSDDLVRDV | -0.505 ± 0.28
109 | YEPCLRSQNVSS | 0.112 ± 0.79
110 | TYMRGSLSEIGGTLL | 1.06 ± 0.19
111 | DLRLYILNL | 6.556 ± 0.055
112 | GLWLGWNLYVNKFV | 0.385 ± 0.33
113 | VVRGIRVTR | 0.116 ± 0.28
114 | MLMSNFCF | -0.077 ± 0.74
115 | FCYIDGLGYSRFNMHAEPSG | -0.326 ± 0.48
116 | SDGEISGEGY | -0.368 ± 1.1
117 | RNSIYCTND | -0.679 ± 0.47
118 | FDLNVVDIFTLCMRKRYTME | inactive
119 | TRSPCGRCDSEFLNASLAGL | 0.71 ± 0.36
120 | DSFIVYVR | -0.072 ± 0.63
121 | NYKRFCSCMLDH | -0.665 ± 0.63
122 | LTPLSNIGCTCDYLMDCSYL | inactive
123 | DLKRLAWMLILSIYNRSTIM | -0.221 ± 1.1
124 | LYLRRWSPGLVMIQYPIILW | 0.545 ± 0.42
125 | LKMSHIYCSIIITAYLNWLV | inactive

Row | Substance | amyloid nucleation score
126 | DYVCGGGFLTKDVSACGLYV | 0.685 ± 0.46
127 | SCPNYTVSIWIYMPFFSWLR | 2.81 ± 0.08
128 | MLELSATMSVHVQRLNASGH | 9.009 ± 0.068
129 | ILWPLHVWYVICYRSNMWSY | 5.27 ± 0.077
130 | AAFTRTSP | 0.858 ± 0.27
131 | SFKFFTVQF | 6.66 ± 0.088
132 | HPDDTMKFSSRTHITTQTDR | 0.908 ± 0.52
133 | YYVFYMVVVCNVITIRQNHM | 1.49 ± 0.28
134 | GYYYLFFILG | 4.78 ± 0.075
135 | ANLCSAT | -0.799 ± 0.44
136 | TMVMTVQPPLHLFCLDLMHD | 2.24 ± 0.12
137 | FGPSRYTRSVFSVEQTSL | -0.114 ± 1
138 | VGLWLTRVPPFVYGYRGSVS | 0.165 ± 1
139 | LLKARLLRSHLWVG | 0.057 ± 0.43
140 | DVLEIFVMTRGIVEVNPDSN | 8.665 ± 0.031
141 | HWLTKISGTTPELYPRERVV | 0.071 ± 0.25
142 | VYYVWRNCLSDCLYYILTYF | -2.05 ± 0.78
143 | VSVNSGSVKLFVIPACCSYD | 6.099 ± 0.055
144 | PRCRVAR | 0.305 ± 1
145 | ITAGVPVFYL | -1.22 ± 1.1
146 | IFYSSLALVWLYNLMDRECT | 2.18 ± 0.17
147 | YMCQRTETMSVSTWGKILCV | inactive
148 | QWRFGRG | 1.16 ± 0.26
149 | LECRLC | 0.308 ± 0.25
150 | CSHTVFGSVCGFTLFQVH | 4.06 ± 0.13

Row | Substance | amyloid nucleation score
151 | QVLVWQHMGRSTVLMLY | -0.58 ± 0.55
152 | QLVGDELMRCSNGAVDKNVA | 1.75 ± 0.24
153 | KLWAPWYNLWLFALTIVCDI | 0.343 ± 0.64
154 | FLSLLR | -1.05 ± 0.42
155 | CNVSSELCYYGMSTYIKNPM | -0.947 ± 0.32
156 | LKGGIFRV | inactive
157 | MSYCNT | 1.77 ± 0.11
158 | TVYSHEKGVQLWFLLIVALL | 0.27 ± 0.48
159 | FVLRIDNC | 0.735 ± 0.39
160 | YRFVLVRNKVSYH | -0.827 ± 0.33
161 | MYEGGSTLW | -0.441 ± 0.45
162 | VDAFLWHVDVHMFIEVGVRW | -0.024 ± 0.65
163 | KLNNVRLGGERFDLRTLGLR | -0.104 ± 0.42
164 | SQHSVARIANGLLTSGTMVL | 0.875 ± 0.36
165 | SQHGVKNLSSRFESLIA | -0.197 ± 0.79
166 | KYFVTNRVVWTDRVSIFGV | 1.07 ± 0.53
167 | YVYDISGRITVNPITYKCQL | -1.16 ± 0.64
168 | PFSIVIVANFYIITYEACFL | 2.85 ± 0.14
169 | LTVTW | 1.2 ± 0.21
170 | HRAWSSVCSKYSSTGTRNLI | 2.99 ± 0.14
171 | GLRLFKMKDFC | 2.14 ± 0.21
172 | NFLDMEWTNLLSVMCVDFWS | 4.55 ± 0.062
173 | HILICFWRVQVLKSACLYWT | 1.74 ± 0.11
174 | RSSRW | 2.82 ± 0.1
175 | DSSKSMCLICSNCILNFSEM | 8.698 ± 0.049
